# Experimental data as given in publication PMC11169542, “A probe for NIR-II imaging and multimodal analysis of early Alzheimer’s disease by targeting CTGF” (Nature Communications, 2024).
# Where “and” joins values, the source holds several entries; their conditions need not be identical. Equal entries are not always repeated. Ends that are not written are not given here.
# What was measured:
# [1] = Pharmacokinetic study of DGC in C57BL/6J mice (serum Au by ICP-MS); assay type: in vivo; details: for AUC(0-t) (AUClast) / AUC(0-∞) (AUCINF_obs) / AµMC(0-t) (AUMClast) / AµMC(0-∞) (AUMCINF_obs) / Cmax / MRT(0-t) (MRTlast) / MRT(0-∞) (MRTINF_obs) / Vz/F (Vz_obs) / elimination half-life t1/2z (HL_Lambda_z) / CLz/F (Cl_obs) / Tmax: 20 mg/kg i.v. single dose, n=3; for AUC(0-t) (AUClast) / AUC(0-∞) (AUCINF_obs) / AµMC(0-t) (AUMClast) / AµMC(0-∞) (AUMCINF_obs) / Cmax / MRT(0-t) (MRTlast) / MRT(0-∞) (MRTINF_obs) / Vz/F (Vz_obs) / elimination half-life t1/2z (HL_Lambda_z) / CLz/F (Cl_obs) / Tmax / Clast / C0 / Cmax_D / Lambda_z: serum Au by ICP-MS; for AUC(0-t) (AUClast) / AUC(0-∞) (AUCINF_obs) / AµMC(0-t) (AUMClast) / AµMC(0-∞) (AUMCINF_obs) / Cmax / MRT(0-t) (MRTlast) / MRT(0-∞) (MRTINF_obs) / Vz/F (Vz_obs) / elimination half-life t1/2z (HL_Lambda_z) / CLz/F (Cl_obs) / Tmax / Clast_pred / AUCINF_D_obs / AUCINF_D_pred / AUCINF_pred / AUCall / AUClast_D / AUMCINF_pred / Cl_pred / MRTINF_pred / Vss_obs / Vss_pred / Vz_pred / C0 / Cmax_D / Lambda_z: WinNonlin; for CLz/F (Cl_obs) / Tmax: 20 mg/kg; for Clast_pred / Clast / AUCINF_D_obs / AUCINF_D_pred / AUCINF_pred / AUCall / AUClast_D / AUMCINF_pred / Cl_pred / MRTINF_pred / Vss_obs / Vss_pred / Vz_pred / C0 / Cmax_D / Lambda_z: 20 mg/kg i.v.; for Clast_pred / Clast: Tlast 48 h
# Protocol: Male and female mice were given a single intravenous dose of 20 mg/ kg (n = 3). The blood of posterior orbital venous plexus was collected at continuous time points (0.083, 0.25, 0.5, 1, 2, 4, 8, 10, 12, 24, and 48 h) and the serum was rapid separation by centrifugation (1200×g at 4 °C, 10 min). Au content in the serum sample was detected by ICP-MS. The pharmacokinetic index was obtained by using winnonlin8.4 […] model.
# [2] = target: T1, CTGF (Mus musculus, UniProt P29268); assay: ICP-MS of Au content in DGC-labelled mouse brain sections; set-up: species or system APP/PS1 and wild-type C57BL/6J mice
# T1 construct: brain sections of the age-matched wild-type C57BL/6J mice were used as controls; from tissue; host or cells: brain of APP/PS1 transgenic and wild-type C57BL/6J mice (sections, living animal, perfused isolated brain)
# T1 sequence (P29268 26-348): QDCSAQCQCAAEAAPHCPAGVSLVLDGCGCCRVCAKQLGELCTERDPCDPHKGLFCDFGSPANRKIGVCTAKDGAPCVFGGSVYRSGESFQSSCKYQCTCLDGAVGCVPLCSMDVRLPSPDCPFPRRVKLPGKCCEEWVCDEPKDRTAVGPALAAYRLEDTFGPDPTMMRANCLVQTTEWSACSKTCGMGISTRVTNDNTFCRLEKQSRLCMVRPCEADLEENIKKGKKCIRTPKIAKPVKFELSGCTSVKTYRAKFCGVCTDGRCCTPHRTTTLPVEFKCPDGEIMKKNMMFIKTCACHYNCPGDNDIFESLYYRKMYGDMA
# Protocol: The DGC in the brain section was measured by ICP-MS. Briefly, the brain sections were digested with 5 mL mix solution (HNO3 and H2O2 = 3:1) overnight. Then, each section was digested at a mild boiling temperature until the solution was evaporated to 0.1–0.2 mL and added 5 mL aqua regia (HCl: HNO3 = 3:1) overnight. Then each section was digested at a mild boiling temperature until the solution was evaporated to 0.1– 0.2 mL and diluted by 2% HNO3 and 1% HCl to the final volume.
substance,measurement,setting,value
"DGC: CTGF-targeting peptide-coated gold nanocluster: one Au26 gold nanocluster coated by eight DAG cyclic peptides, NIR-II and red fluorescence (CDAGRKQKC; also: cyclic peptide, ring not given here, eight peptides on one Au26 nanocluster via Cys Au-S bonds)",AUC(0-t) (AUClast),[1]; female C57BL/6J mice,650.995 µg·h/mL
same,AUC(0-∞) (AUCINF_obs),[1]; female C57BL/6J mice,779.367 µg·h/mL
same,AµMC(0-t) (AUMClast),[1]; female C57BL/6J mice,10136.5 h*h*mg/L
same,AµMC(0-∞) (AUMCINF_obs),[1]; female C57BL/6J mice,19964.5 h*h*mg/L
same,Cmax,[1]; female C57BL/6J mice,191.26 µg/mL
same,MRT(0-t) (MRTlast),[1]; female C57BL/6J mice,15.5708 h
same,MRT(0-∞) (MRTINF_obs),[1]; female C57BL/6J mice,25.6162 h
same,Vz/F (Vz_obs),[1]; female C57BL/6J mice,0.7329 L/kg
same,elimination half-life t1/2z (HL_Lambda_z),[1]; female C57BL/6J mice,19.7951 h
same,CLz/F (Cl_obs),[1]; female C57BL/6J mice,0.03 L/h/kg and 0.02566 L/h/kg
same,Tmax,[1]; female C57BL/6J mice,4.8 min and 4.98 min
same,Clast_pred,[1]; female C57BL/6J mice,4.584 µg/mL
same,Clast,[1]; female C57BL/6J mice,4.495 µg/mL
same,AUCINF_D_obs,[1]; female C57BL/6J mice,38.9684 kg·mg·h/L/mg
same,AUCINF_D_pred,[1]; female C57BL/6J mice,39.095 kg·mg·h/L/mg
same,AUCINF_pred,[1]; female C57BL/6J mice,781.9 µg·h/mL
same,AUCall,[1]; female C57BL/6J mice,650.995 µg·h/mL
same,AUClast_D,[1]; female C57BL/6J mice,32.5498 kg·mg·h/L/mg
same,AUMCINF_pred,[1]; female C57BL/6J mice,20158.4 h*h*mg/L
same,Cl_pred,[1]; female C57BL/6J mice,0.02558 L/h/kg
same,MRTINF_pred,[1]; female C57BL/6J mice,25.7813 h
same,Vss_obs,[1]; female C57BL/6J mice,0.6574 L/kg
same,Vss_pred,[1]; female C57BL/6J mice,0.6595 L/kg
same,Vz_pred,[1]; female C57BL/6J mice,0.7305 L/kg
same,C0,[1]; female C57BL/6J mice,267.189 µg/mL
same,Cmax_D,[1]; female C57BL/6J mice,9.563 kg·mg/L/mg
same,Lambda_z,[1]; female C57BL/6J mice,0.03502 h⁻¹
same,elimination half-life (t1/2z),"[1]; in mice, sex not specified",about 20 h
same,AUC(0-t) (AUClast),[1]; male C57BL/6J mice,615.219 µg·h/mL
same,AUC(0-∞) (AUCINF_obs),[1]; male C57BL/6J mice,735.649 µg·h/mL
same,AµMC(0-t) (AUMClast),[1]; male C57BL/6J mice,8803.77 h*h*mg/L
same,AµMC(0-∞) (AUMCINF_obs),[1]; male C57BL/6J mice,18299.4 h*h*mg/L
same,Cmax,[1]; male C57BL/6J mice,172.688 µg/mL
same,MRT(0-t) (MRTlast),[1]; male C57BL/6J mice,14.31 h
same,MRT(0-∞) (MRTINF_obs),[1]; male C57BL/6J mice,24.8751 h
same,Vz/F (Vz_obs),[1]; male C57BL/6J mice,0.8386 L/kg
same,elimination half-life t1/2z (HL_Lambda_z),[1]; male C57BL/6J mice,21.3817 h
same,CLz/F (Cl_obs),[1]; male C57BL/6J mice,0.03 L/h/kg and 0.02719 L/h/kg
same,Tmax,[1]; male C57BL/6J mice,4.8 min and 4.98 min
same,Clast_pred,[1]; male C57BL/6J mice,3.998 µg/mL
same,Clast,[1]; male C57BL/6J mice,3.904 µg/mL
same,AUCINF_D_obs,[1]; male C57BL/6J mice,36.7825 kg·mg·h/L/mg
same,AUCINF_D_pred,[1]; male C57BL/6J mice,36.9275 kg·mg·h/L/mg
same,AUCINF_pred,[1]; male C57BL/6J mice,738.551 µg·h/mL
same,AUCall,[1]; male C57BL/6J mice,615.219 µg·h/mL
same,AUClast_D,[1]; male C57BL/6J mice,30.7609 kg·mg·h/L/mg
same,AUMCINF_pred,[1]; male C57BL/6J mice,18528.2 h*h*mg/L
same,Cl_pred,[1]; male C57BL/6J mice,0.02708 L/h/kg
same,MRTINF_pred,[1]; male C57BL/6J mice,25.0872 h
same,Vss_obs,[1]; male C57BL/6J mice,0.6763 L/kg
same,Vss_pred,[1]; male C57BL/6J mice,0.6794 L/kg
same,Vz_pred,[1]; male C57BL/6J mice,0.8353 L/kg
same,C0,[1]; male C57BL/6J mice,204.126 µg/mL
same,Cmax_D,[1]; male C57BL/6J mice,8.634 kg·mg/L/mg
same,Lambda_z,[1]; male C57BL/6J mice,0.03242 h⁻¹
same,ICP-MS Au content per section,"[2]; 3-month-old APP/PS1 mouse brain section incubated with DGC, section 1",36.3
same,ICP-MS Au content per section,"[2]; 3-month-old APP/PS1 mouse brain section incubated with DGC, section 2",50.92
same,ICP-MS Au content per section,"[2]; 3-month-old APP/PS1 mouse brain section incubated with DGC, section 3",74.61
same,ICP-MS Au content per section,"[2]; 9-month-old APP/PS1 mouse brain section incubated with DGC, section 1",87.62
same,ICP-MS Au content per section,"[2]; 9-month-old APP/PS1 mouse brain section incubated with DGC, section 2",82.72
same,ICP-MS Au content per section,"[2]; 9-month-old APP/PS1 mouse brain section incubated with DGC, section 3",97.01
same,ICP-MS Au content per section,"[2]; WT mouse brain section incubated with DGC, section 1",11.2
same,ICP-MS Au content per section,"[2]; WT mouse brain section incubated with DGC, section 2",23.11
same,ICP-MS Au content per section,"[2]; WT mouse brain section incubated with DGC, section 3",12.01
